In patent US20230060388A1 (SHANGHAI HENLIUS BIOTECH, published 2023):

B1: 1A10 VHH (VHH)
VHH: QVQLVESGGGVVQPGRSLRLSCAASGNSFSSYPMGWFRQAPGKERESVAAISSDGRFSYYADSVKGRFTISRDNSKNTLYLQMNSLRAEDTAVYYCACRDSGSGYYSRAQWYDYWGQGTLVTVSS
B2: 1C7 VHH (VHH)
VHH: QVQLVESGGGVVQPGRSLRLSCAASGPSFSSYPMGWFRQAPGKERESVAAISSRGRFTYYADSVKGRFTISRDNSKNTLYLQMNSLRAEDTAVYYCAARGSGSGYYSRAQWYDYWGQGTLVTVSS
B3: 1D11 VHH (VHH)
VHH: QVQLVESGGGVVQPGRSLRLSCAASGPSFSSSPMGWFRQAPGKERESVAAISSMGRFTYYADSVKGRFTISRDNSKNTLYLQMNSLRAEDTAVYYCAARDSGSGYYSRAQWYDYWGQGTLVTVSS
B4: 2A5 VHH (VHH)
VHH: QVQLVESGGGVVQPGRSLRLSCAASGPSFSSYPMGWFRQAPGKERESVAAISSVGRFTYYADSVKGRFTISRDNSKNTLYLQMNSLRAEDTAVYYCAARDSGSGYYSRWQWYDYWGQGTLVTVSS
B5: 2A6 VHH (VHH)
VHH: QVQLVESGGGVVQPGRSLRLSCAASGPSFSLYPMGWFRQAPGKERESVAAISSDRRFTYYADSVKGRFTISRDNSKNTLYLQMNSLRAEDTAVYYCAARDSGSGYYSRAQWYDYWGQGTLVTVSS
B6: 2C5 VHH (VHH)
VHH: QVQLVESGGGVVQPGRSLRLSCAASGPSFSTYPMGWFRQAPGKERESVAAISSQGRFTYYADSVKGRFTISRDNSKNTLYLQMNSLRAEDTAVYYCAARDSGSGYYSRAQWYDYWGQGTLVTVSS
B7: 2D5 VHH (VHH)
VHH: QVQLVESGGGVVQPGRSLRLSCAASGPSFSSSPMGWFRQAPGKERESVAAISWDGRFTYYADSVKGRFTISRDNSKNTLYLQMNSLRAEDTAVYYCAARDSGSGYYSRAQWYVYWGQGTLVTVSS
B8: 5B5 VHH (VHH)
VHH: QVQLVESGGGVVQPGRSLRLSCAASGPSFSSYPMGWFRQAPGKERESVAAISSDTRFTYYADSVKGRFTISRDNSKNTLYLQMNSLRAEDTAVYYCAARDSGSGYYSRAQWYDRWGQGTLVTVSS
B9: 5E8 VHH (VHH)
VHH: QVQLVESGGGVVQPGRSLRLSCAASGPSFSSYPMGWFRQAPGKERESVAAQSSDGRFTYYADSVKGRFTISRDNSKNTLYLQMNSLRAEDTAVYYCAARDSGSGYYSRAQWYDYWGQGTLVTVSS
B10: 5G10 VHH (VHH)
VHH: QVQLVESGGGVVQPGRSLRLSCAASGPRFSSYPMGWFRQAPGKERESVAAISSDGRFTYYADSVKGRFTISRDNSKNTLYLQMNSLRAEDTAVYYCAARDSGSGYYSRAQWYDGWGQGTLVTVSS
B11: 6B11 VHH (VHH)
VHH: QVQLVESGGGVVQPGRSLRLSCAASGPSFPSYPMGWFRQAPGKERESVAAISSRGRFTYYADSVKGRFTISRDNSKNTLYLQMNSLRAEDTAVYYCAARDSGSGYYSRLQWYDYWGQGTLVTVSS
B12: 6D8 VHH (VHH)
VHH: QVQLVESGGGVVQPGRSLRLSCAASGPSFSSKPMGWFRQAPGKERESVAARSSDGRFTYYADSVKGRFTISRDNSKNTLYLQMNSLRAEDTAVYYCAARDSGSGRYSRAQWYDYWGQGTLVTVSS
B13: 6D12 VHH (VHH)
VHH: QVQLVESGGGVVQPGRSLRLSCAASGPSFSTYPMGWFRQAPGKERESVAAISSDGVFTYYADSVKGRFTISRDNSKNTLYLQMNSLRAEDTAVYYCAARDSGSGYYSREQWYDYWGQGTLVTVSS
B14: 6E9 VHH (VHH)
VHH: QVQLVESGGGVVQPGRSLRLSCAASGPSRSSYPMGWFRQAPGKERESVAAISSDGKFTYYADSVKGRFTISRDNSKNTLYLQMNSLRAEDTAVYYCAARDSGSGYYSRANWYDYWGQGTLVTVSS
B15: 7B11 VHH (VHH)
VHH: QVQLVESGGGVVQPGRSLRLSCAASGPSFLIYPMGWFRQAPGKERESVAAISSDGRFWYYADSVKGRFTISRDNSKNTLYLQMNSLRAEDTAVYYCAARDSGSGYYSRVQWYDYWGQGTLVTVSS
B16: 4A11 VHH (VHH)
VHH: QVKLEESGGGEAQPGGSLRLSCTASGRPFSNYTMGWFRRAPGKEREFVGLAWPSPSTYVVDSVKGRFTISRDNAKNTIYLQMNSLKPEDTAIYYCAADYKSLTQSWLNAALDYWGQGTQVTVSS
notes: VHH in E. coli supernatant
B17: 12H7 VHH (VHH)
VHH: QVQLVDSGGGLVQAGGSLRLSCKVSGNFLSVSDMSWYRQAPGMERDVVATVTEHGRTTYTDSVKGRFTISRDNAEHTTYLEMNNLKPEDTAVYFCKASDVFTDAGAHEAVLIRDYWGQGTQVTVSS
notes: VHH in E. coli supernatant
B18: 3H7 VHH (VHH)
VHH: QVKLEESGGGLVQAGGSLRLSCAASGSILSAGVMRWYRQAPGKQRELVASIALDGSTGYYIDSVKGRFTISRDNAKNIVYLDMRSLEPADTAVYLCNANIRTDMRSAPFDHWGHGTQVTVSS
notes: VHH in E. coli supernatant
B19: 4C6 VHH (VHH)
VHH: QVQLVESGGGLVQAGGSLRLACAASGRTFSSYPMGWFRQGPGKERESVAAISSDGRFTYYAASVKGRFTISKDNAKSAAFLQMNSLKPEDTAVYRCAVDPTGWGTIEADFRSWGQGTQVTVSS
notes: VHH in E. coli supernatant
B20: 4B5 VHH (VHH)
VHH: QVKLEESGGRSVLAGGSLRLRCAGTPRTFSTFHIGWFRQAPGKEREFVAAFNWSGGRTYYADSVKGRFTISRNNGKNMVYLQMTSLTPEDTGLYYCAAARDRGLHDGTTSDSYLEGSHEYEYWGQGTQVTVSS
notes: VHH in E. coli supernatant
B21: 4E5 VHH (VHH)
VHH: QVQLVDSGGGVVEVGASLTLSCETSGLTSSDIAVGWFRQGPGKERESVAAISSDGRFTYYAASVKGRFTISKDNAKSAAFLQMNSLKPEDTAVYYCAARDSGSGYYSRAQWYDYWGQGTQVTVSS
notes: VHH in E. coli supernatant
B22: 4C5 VHH (VHH)
VHH: QVQLVDSGGGLVQAGGSLRLSCAVSGRSVSTYFVGWFRQAPGKEREFVAAIDRGSTVTRYDDSVKGRFTISRDNAKDTVYLQMNSLKPEDTAVYYCAAKAITRNFIATNDYDYWGQGTQVTVSS
notes: VHH in E. coli supernatant
B23: 4D11 VHH (VHH)
VHH: QVQLQESGGGLVQPGGSLRLSCAASGSISSINAMGWYRLAPGKHREFVADITNSGSTNYAASVKGRFNISRDNAKDTVYLQMNSLKFEDTAVYYCTARRSTWYISSGRGTQVTVSS
notes: VHH in E. coli supernatant
B24: 4H6 VHH (VHH)
VHH: QVQLVESGGGLATAGASLILSCAASGTIFRLNRMGWFRQAPGKERERVAATIWSGRRTHYADSVKGRFTISTDNAKKTVYLRMSSLKPEDTAVYYCNYRRITPWEASGNYWGQGTQVTVSS
notes: VHH in E. coli supernatant
B25: 4H9 VHH (VHH)
VHH: QVQLVESGGGAVQAGGSLRLSCTASGPIARSRSTGMGWFRQGPGKERESVAAISSDGRFTYYAASVKGRFTISKDNAKSAAFLQMNSLKPEDTAVYYCAARDSGSGYYSRAQWYDYWGQGTQVTVSS
notes: VHH in E. coli supernatant

Tests used:
[1] = target: T1, human TIGIT expressed on cells (stably transfected Jurkat cells) (human, UniProt Q495A1 22-244); assay: whole cell binding to h-TIGIT stable cells, EC50 plotted against the blocking ELISA IC50
T1 construct: Also used here for TIGIT on primary T cells in the MLR; also called h-TIGIT; T cell immunoreceptor with Ig and ITIM domains
T1 sequence: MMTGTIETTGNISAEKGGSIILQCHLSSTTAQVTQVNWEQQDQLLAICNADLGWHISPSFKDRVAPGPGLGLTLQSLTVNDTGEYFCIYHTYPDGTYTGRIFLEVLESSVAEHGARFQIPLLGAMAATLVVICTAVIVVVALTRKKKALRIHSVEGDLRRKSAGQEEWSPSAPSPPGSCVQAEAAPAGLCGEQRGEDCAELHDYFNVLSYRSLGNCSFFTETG

[2] = target: T2, recombinant human TIGIT extracellular domain (ECD) (human, UniProt Q495A1 22-138); assay: PVR blocking ELISA (blocked ligand: PVR), IC50 plotted against the whole cell binding EC50
T2 construct: also called h-TIGIT ECD; recombinant human TIGIT ECD
T2 sequence: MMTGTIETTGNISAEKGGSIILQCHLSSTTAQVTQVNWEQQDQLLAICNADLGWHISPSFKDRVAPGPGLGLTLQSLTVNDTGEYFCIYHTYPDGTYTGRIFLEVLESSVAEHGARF

[3] = target: T2, recombinant human TIGIT extracellular …; assay: ELISA, VHH supernatant on h-TIGIT ECD coated plates
Description: The VHH antibody genes were amplified by PCR under protocols know in the art, purified by DNA agarose gel, constructed into a phagemid vector pADL-23c (Antibody Design Labs) and transformed to TG1 electrocompetent cells (from Lucigen). Transformed TG1 cells were cultured in Y2T medium. […] Phages in supernatants of culture were harvested by centrifugation, and panning of binders to human-TIGIT (h-TIGIT) or cynomolgus-TIGIT (cyno-TIGIT) antigen was performed using streptavidin-coupled Dynabeads coated with biotinylated h-TIGIT or cyno-TIGIT ECD. After 3 rounds of panning, binders of h-TIGIT or cyno-TIGIT were eluted, which were used to infect SS320 cells. Colonies of SS320 cells were picked and cultured in Y2T medium, and IPTG was added for secretion of VHH antibodies. Supernatants with VHH antibodies were screened by ELISA assays using h-TIGIT ECD coated plates. Positive h-TIGIT binders were picked for sequencing. 29 clones with different sequences were selected. Binding ability of VHH antibodies on cyno-TIGIT was also examined by ELISA. The top 21 binders and their CDRs and VHs are shown in the Sequence Table (SEQ ID NOS: 1-84).

Binder | binding result [1] | binding result [2] | binding result [3]
B1 | binds | binds | –
B2 | binds | binds | –
B3 | binds | binds | –
B4 | binds | binds | –
B5 | binds | binds | –
B6 | binds | binds | –
B7 | binds | binds | –
B8 | binds | binds | –
B9 | binds | binds | –
B10 | binds | binds | –
B11 | binds | binds | –
B12 | binds | binds | –
B13 | binds | binds | –
B14 | binds | binds | –
B15 | binds | binds | –
B16 | – | – | binds
B17 | – | – | binds
B18 | – | – | binds
B19 | – | – | binds
B20 | – | – | binds
B21 | – | – | binds
B22 | – | – | binds
B23 | – | – | binds
B24 | – | – | binds
B25 | – | – | binds
